B1: BTB/POZ domain-containing protein At1g21780 (Arabidopsis thaliana (Mouse-ear cress)), Q9XHZ8 (parent)
chain: MGDTKVETISRLAQWRIENFGPCSFKKSDPFKVGIWNWHLSIERNRYLSVRLFPELSRVSKEQPPVAKFVLRVSNVGPNRRFYISPVYEKLLRTTDDCVWHVDSSFHGRFTIDVEFLDLKICPVNGGEASPVWPTDATMQSISTQTTLKCLSRMLEESILTDVIIHTADGTLSAHKAILSASSTVFKSMFHHDLMEKESSTIHIDDMSRESCMALLSYLYGNITQEEFWKHRLALLGAANKYDITDLKAACEESLMEDINSSNVLERLQEAWLYQLEKLKKGCLMYLFDFGKIYDVREEISSFFRQADRELMLEMFQEVLSVWKPV
partner: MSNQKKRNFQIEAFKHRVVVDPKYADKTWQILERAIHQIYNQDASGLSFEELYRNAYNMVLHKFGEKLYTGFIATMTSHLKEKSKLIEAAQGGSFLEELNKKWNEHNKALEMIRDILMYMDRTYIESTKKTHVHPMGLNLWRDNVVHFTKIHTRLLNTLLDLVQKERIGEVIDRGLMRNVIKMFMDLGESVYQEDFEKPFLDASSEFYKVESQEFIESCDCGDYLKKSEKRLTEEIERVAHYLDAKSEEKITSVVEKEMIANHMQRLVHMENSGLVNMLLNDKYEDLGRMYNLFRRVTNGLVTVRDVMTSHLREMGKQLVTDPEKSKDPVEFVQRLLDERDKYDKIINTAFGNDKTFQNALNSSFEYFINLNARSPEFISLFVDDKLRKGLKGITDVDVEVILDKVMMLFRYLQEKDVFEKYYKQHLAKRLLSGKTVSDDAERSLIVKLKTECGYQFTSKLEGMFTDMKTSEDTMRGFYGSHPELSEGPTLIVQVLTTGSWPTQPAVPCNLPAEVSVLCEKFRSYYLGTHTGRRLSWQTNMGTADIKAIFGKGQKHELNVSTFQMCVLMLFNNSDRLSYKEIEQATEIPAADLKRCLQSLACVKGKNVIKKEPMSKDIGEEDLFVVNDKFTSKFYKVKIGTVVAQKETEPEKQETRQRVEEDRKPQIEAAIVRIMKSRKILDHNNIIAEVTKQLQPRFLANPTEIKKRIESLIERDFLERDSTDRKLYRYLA
B2: Cullin-3A (Arabidopsis thaliana (Mouse-ear cress)), Q9ZVH4 (parent)
chain: B1 partner
partner: B1 chain

Variants of: B1
Conditions: with cul3a_arath CUL3A, Q9ZVH4

effect of a mutation on the interaction | Variant
decreasing interaction | MGDTKVETISRLAQWRIENFGPCSFKKSDPFKVGIWNWHLSIERNRYLSVRLFPELSRVSKEQPPVAKFVLRVSNVGPNRRFYISPVYEKLLRTTDDCVWHVDSSFHGRFTIDVEFLDLKICPVNGGEASPVWPTDATMQSISTQTTLKCLSRMLEESILTDVIIHTADGTLSAHKAILSASSTVFKSMFHHDLMEKESSTIHRDDMSRESCMALLSYLYGNITQEEFWKHRLALLGAANKYDITDLKAACEESLMEDINSSNVLERLQEAWLYQLEKLKKGCLMYLFDFGKIYDVREEISSFFRQADRELMLEMFQEVLSVWKPV [I204R]
decreasing interaction | MGDTKVETISRLAQWRIENFGPCSFKKSDPFKVGIWNWHLSIERNRYLSVRLFPELSRVSKEQPPVAKFVLRVSNVGPNRRFYISPVYEKLLRTTDDCVWHVDSSFHGRFTIDVEFLDLKICPVNGGEASPVWPTDATMQSISTQTTLKCLSRMLEESILTDVIIHTADGTLSAHKAILSASSTVFKSMFHHDLMEKESSTIHIDDMSRESCMALLSYLYGNITQEEFWKHRLALLGAANKADITDLKAACEESLMEDINSSNVLERLQEAWLYQLEKLKKGCLMYLFDFGKIYDVREEISSFFRQADRELMLEMFQEVLSVWKPV [Y242A]

Variants of: B2
Conditions: with y1178, Q9XHZ8

effect of a mutation on the interaction | Variant
decreasing interaction | F49A
decreasing interaction | S48A

Reference: IntAct's records for PubMed 15772280
